Experiment [1] has as its target human CRF1 receptor (human) (UniProt P34998). Put plainly: cell-based or functional assay.
Experiment [2] concerns the target T1, human CRF2α receptor (human) (UniProt Q13324).
T1 sequence: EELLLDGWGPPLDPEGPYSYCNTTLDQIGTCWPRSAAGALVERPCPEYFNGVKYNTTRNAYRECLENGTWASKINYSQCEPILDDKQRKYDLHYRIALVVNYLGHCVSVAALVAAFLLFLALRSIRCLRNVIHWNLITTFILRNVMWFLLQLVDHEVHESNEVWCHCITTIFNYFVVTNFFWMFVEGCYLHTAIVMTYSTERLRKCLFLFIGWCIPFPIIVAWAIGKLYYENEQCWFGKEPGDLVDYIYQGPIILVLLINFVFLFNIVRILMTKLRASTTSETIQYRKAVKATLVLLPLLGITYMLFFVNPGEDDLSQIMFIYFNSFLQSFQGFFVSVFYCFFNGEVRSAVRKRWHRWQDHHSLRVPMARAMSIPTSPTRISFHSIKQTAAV
Put plainly: cell-based or functional assay.

Chain of human CRF1 receptor (human) (P34998 24-415): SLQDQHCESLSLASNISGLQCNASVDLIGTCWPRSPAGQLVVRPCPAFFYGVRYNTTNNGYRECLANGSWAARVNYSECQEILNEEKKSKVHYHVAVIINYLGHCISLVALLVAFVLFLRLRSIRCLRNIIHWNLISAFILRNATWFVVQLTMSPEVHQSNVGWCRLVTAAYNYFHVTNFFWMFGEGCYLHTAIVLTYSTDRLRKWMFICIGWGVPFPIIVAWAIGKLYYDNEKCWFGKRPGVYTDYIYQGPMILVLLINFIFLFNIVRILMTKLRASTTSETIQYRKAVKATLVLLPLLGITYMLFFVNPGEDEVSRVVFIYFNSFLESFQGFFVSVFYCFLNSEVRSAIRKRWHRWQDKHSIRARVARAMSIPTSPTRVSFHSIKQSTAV

With “Gly41 r/hCRF-OH (from UniProt P06850 154-194) (peptide)”, the EC50 of adenylate cyclase stimulation (cAMP) in experiment [1] is 800 nM; in experiment [2] it was more than 1000 nM.

Regarding Urotensin I (peptide), the EC50 of adenylate cyclase stimulation (cAMP) in experiment [1] was determined as 4 nM; in experiment [2] it was 2 nM.

α-helical oCRF(9-41) (peptide): the EC50 of adenylate cyclase stimulation (cAMP) in experiment [1] and in experiment [2] was more than 1000 nM in each case.

For the origin of these results see patent US6723841.
